In patent US5981167A, “Surface plasmon resonance based enzymatic assay” (priority 1998, dated 1999):

Assays:
[1] = test system: HCV protease His-NS3(183)Δ4AHT; conditions: concentrated enzyme
[2] = biological target: maturation site peptide […] (CMV)
[3] = test system: in vitro-translated 5A/5B substrate; assay: Trans-cleavage assay in the presence of 4A peptide; type: biochemical, HCV; conditions: refolded protein
Source text: Precipitation of protein occurred at the last step of dialysis, and the soluble protein was clarified by centrifugation. The overall protein recovery was about 0.10%.

Biotin-DTEDVVAC SMSYTWTGK-pY
time to 50% substrate cleavage [1]: ≤ 1 h

CMV protease, refolded wild type (from UniProt P16753) (enzyme)
Km [2]: 1020 µM

B1: HisHIV183: HCV NS3 protease without solubilizing motif, refolded from E. coli inclusion body pellet (protein)
chain: APITAYAQQTRGLLGCIITSLTGRDKNQVEGEVQIVSTATQTFLATCINGVCWTVYHGAGTRTIASPKGPVIQTYTNVDQDLVGWPAPQGSRSLTPCTCGSSDLYLVTRHADVIPVRRRGDSRGSLLSPRPISYLKGSSGGPLLCPTGHAVGLFRAAVCTRGVAKAVDFIPVENLETTMRSPV
activity in trans-cleavage assay [3]: active
